T1: rNPR1-ANP complex (rat, UniProt P01160 124-151 (human entry), limits assumed)
T1 construct: rNPR1 antigen in the presence of ANP; also called rNPR1 + 100 nM ANP
T1 sequence: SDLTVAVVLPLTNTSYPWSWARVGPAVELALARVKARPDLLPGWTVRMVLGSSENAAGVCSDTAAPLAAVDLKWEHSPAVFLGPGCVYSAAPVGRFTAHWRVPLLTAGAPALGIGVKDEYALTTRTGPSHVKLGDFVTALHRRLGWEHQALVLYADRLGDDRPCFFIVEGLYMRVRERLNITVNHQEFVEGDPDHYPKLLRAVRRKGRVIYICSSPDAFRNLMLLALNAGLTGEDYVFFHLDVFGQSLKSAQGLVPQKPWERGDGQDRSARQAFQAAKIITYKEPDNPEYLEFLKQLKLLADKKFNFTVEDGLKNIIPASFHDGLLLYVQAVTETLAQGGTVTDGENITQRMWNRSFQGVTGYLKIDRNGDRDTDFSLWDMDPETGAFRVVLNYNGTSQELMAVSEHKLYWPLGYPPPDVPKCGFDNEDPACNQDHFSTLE
T1 sequence (peptide): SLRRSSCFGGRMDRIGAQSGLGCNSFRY

T2: human NPR3 (counter target) (human, UniProt P17342 27-481, limits assumed)
T2 construct: Pannings used hNPR3-hFc; also called hNPR3; hNPR3-hFc
T2 sequence (looked up): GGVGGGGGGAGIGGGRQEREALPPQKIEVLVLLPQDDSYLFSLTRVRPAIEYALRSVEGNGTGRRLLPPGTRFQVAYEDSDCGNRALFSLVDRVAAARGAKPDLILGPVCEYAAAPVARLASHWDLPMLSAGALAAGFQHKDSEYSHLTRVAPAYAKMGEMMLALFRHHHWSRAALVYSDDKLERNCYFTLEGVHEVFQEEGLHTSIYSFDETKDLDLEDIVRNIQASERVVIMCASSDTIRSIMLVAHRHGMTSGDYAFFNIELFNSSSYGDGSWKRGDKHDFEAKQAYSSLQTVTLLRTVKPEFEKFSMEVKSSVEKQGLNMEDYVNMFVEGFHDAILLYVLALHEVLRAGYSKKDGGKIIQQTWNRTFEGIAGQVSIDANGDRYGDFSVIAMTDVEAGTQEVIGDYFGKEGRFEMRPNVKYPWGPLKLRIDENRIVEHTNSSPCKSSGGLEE

T3: rat NPR1 (rNPR1) (rat, UniProt P18910 29-469, limits assumed)
T3 construct: Soluble antigen
T3 sequence: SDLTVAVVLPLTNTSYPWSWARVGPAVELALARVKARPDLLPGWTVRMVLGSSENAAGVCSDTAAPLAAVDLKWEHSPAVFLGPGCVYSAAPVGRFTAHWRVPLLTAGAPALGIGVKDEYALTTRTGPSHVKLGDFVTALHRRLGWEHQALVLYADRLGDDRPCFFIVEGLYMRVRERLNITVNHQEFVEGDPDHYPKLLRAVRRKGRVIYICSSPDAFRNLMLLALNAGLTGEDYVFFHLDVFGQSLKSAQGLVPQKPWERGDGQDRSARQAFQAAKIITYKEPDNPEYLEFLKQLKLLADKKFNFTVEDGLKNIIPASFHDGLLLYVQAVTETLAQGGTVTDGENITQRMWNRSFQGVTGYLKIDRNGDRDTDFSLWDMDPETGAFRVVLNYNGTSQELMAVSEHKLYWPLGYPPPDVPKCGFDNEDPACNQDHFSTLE

T4: human Natriuretic Peptide Receptor 1 (hNPR1) (human, UniProt P16066 33-473, limits assumed)
T4 construct: pannings used NPR1-hFc; also called NPR1-hFc
T4 sequence: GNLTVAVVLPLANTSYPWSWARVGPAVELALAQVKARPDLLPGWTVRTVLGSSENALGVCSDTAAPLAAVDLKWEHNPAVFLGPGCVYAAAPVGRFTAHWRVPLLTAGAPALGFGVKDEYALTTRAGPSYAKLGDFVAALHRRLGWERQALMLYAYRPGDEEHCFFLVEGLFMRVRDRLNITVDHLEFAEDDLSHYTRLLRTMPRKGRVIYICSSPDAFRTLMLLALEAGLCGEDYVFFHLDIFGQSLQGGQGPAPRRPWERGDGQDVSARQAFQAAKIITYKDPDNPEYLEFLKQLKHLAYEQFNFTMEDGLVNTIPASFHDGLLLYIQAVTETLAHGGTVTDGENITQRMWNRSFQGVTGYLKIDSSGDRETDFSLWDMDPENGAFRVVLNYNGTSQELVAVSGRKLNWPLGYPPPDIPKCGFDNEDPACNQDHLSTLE


Columns and labels:
[1] = biological target: T1, rNPR1-ANP complex; experiment: ELISA, IgG titrated on coated antigen with ANP (250 fold molar excess), fluorescence [Cont.]
[2] = biological target: T2, human NPR3 (counter target); experiment: ELISA, IgG titrated on coated antigen, fluorescence [Cont.]
[3] = biological target: T3, rat NPR1 (rNPR1); experiment: as above
[4] = biological target: W74R hNPR1 mutant in the presence of ANP (human) (UniProt P01160); experiment: ELISA, IgG titrated on coated antigen with ANP (250 fold molar excess), fluorescence [Cont.]
[5] = biological target: T4, human Natriuretic Peptide Receptor 1 …; experiment: FRET ANP competition assay: IgG titrated on NPR1, Eu-labeled donor, Cy5-labeled ANP as the competed ligand [Cont.]
Protocol: The same 31 IgGs were tested for ANP competition using a Fluorescence Resonance Energy Transfer (FRET)-based assay in which the NPR1-specific antibodies competed with ANP for binding to NPR1. In this FRET based assay (see FIG. 3), Eu-labeled Streptavidin (for measurement of IgGs) or Eu-labeled anti-hFc antibody (for measurement of FabCys) was used as an energy donor, while Cy5-labeled ANP was used as an acceptor (for all measurements). The resulting fluorescent signal was decreased by ANP-competitive antibodies. The assay was performed as follows: antibodies were mixed with NPR1 and incubated for 5 minutes at room temperature. After addition of the Eu-labeled donor and incubation for 30 minutes at room temperature, the Cy5-ANP solution was added. After a further 60-minute incubation, readout was performed using a TECAN Infinite M1000 Pro using an excitation wavelength of 317 nm and an emission wavelength of 665 nm. Percentage of ANP competition was calculated according to the following formulae: […]
All 92 FabCys and 24 IgGs were tested for binding to relevant antigens via ELISA and relevant cell lines by flow cytometry. […] Eight functional candidates were identified and analyzed for specificity in the Protein Panel Profiling assay (3P assay) in IgG format. For comparison, one of the functional candidates from the initial campaign (WW03) was analyzed. […]

[6] = biological target: T4, human Natriuretic Peptide Receptor 1 …; experiment: ELISA, IgG titrated on coated antigen, fluorescence [Cont.]

Binder	binding result [1]	binding result [2]	binding result [3]	EC50 (read off the curve) [4] [nM]	IC50 (read off the curve) [5] [nM]	EC50 (read off the curve) [6] [nM]
YY07 (IgG format) (antibody, V domains shown, also called YY07_LALA) VH: EVQLVQSGAEVKKPGESLKISCKGSGYSFTSYWISWVRQMPGKGLEWMGIIYPGTSYTRYSPSFQGQVTISADKSISTAYLQWSSLKASDTAMYYCARGSLPGLLGFDHWGQGTLVTVSS VL: QSVLTQPPSVSGAPGQRVTISCTGSSSNIGAGYDVHWYQQLPGTAPKLLIYGNSNRPNGVPDRFSGSKSGTSASLAITGLQAEDEADYYCQSYDSPTSSSVFGGGTKLTVLG	no binding (tested: 1000 nM)	no binding (tested: 1000 nM)	no binding (tested: 1000 nM)	–	–	–
YY06 (IgG format) (antibody, V domains shown, also called YY06_LALA) VH: EVQLLESGGGLVQPGGSLRLSCAASGFTFSSYAISWVRQAPGKGLEWVSAISGSGGSTYYAESVKGRFTISRDNSKNTLYLQMNSLRAEDTAVYYCARPYLGDRRSYGFDHWGQGTLVTVSS VL: QSALTQPASVSGSPGQSITISCTGTSSDVGSYNLVSWYQQHPGKAPKLMIYEGSKRPSGVSNRFSGSKSGNTASLTISGLQAEDEADYYCSSYGFHIVVVVFGGGTKLTVLG	–	–	–	20	~4	~7

Source: US20240052042A1 (Novartis, published 2024)
